Source: patent US20260132197A1 (NANJING LEGEND BIOTECH, published 2026)
Values belong to the binder of their own block, whether it stands above or below them.

What was measured:
[1] = target: T1, human CD47 on cells (SHP-77 tumor cells, human red blood cells, CCRF-CEM cells, human CD47 CHO-K1 stable cell … (human, UniProt Q08722 19-323)); experiment: flow cytometry on SHP-77 cells
T1 construct: whole, on cells; also called RBC

[2] = target: T2, wild type human CD47 (Acro Biosystems, cat. no. CD7-H5227) (human, UniProt Q08722 19-139); experiment: SPR, IgG captured, CD47 in flow; exp 2
T2 construct: Bought protein used as SPR analyte; also called Human CD47 wt; wild-type CD47

Human CD47-C33G [3] = target: T3, Human CD47-C33G (human, UniProt Q08722 19-135); experiment: SPR, IgG captured, CD47 in flow; exp 2
T3 construct: also called CD47 mutein with C33G mutation

Human CD47-C33G [4] = target: T3, Human CD47-C33G; experiment: SPR, IgG captured, CD47 in flow; exp 2; estimated, out of instrument limit
[5] = target: T1, human CD47 on cells (SHP-77 tumor …); experiment: flow cytometry on human RBCs;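 also: antibody binding measured by flow cytometry as geometric mean fluorescence intensity over a range of antibody concentrations, with EC50 and maximum taken from a sigmoidal dose-response fit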
[6] = target: T1, human CD47 on cells (SHP-77 tumor …); experiment: cell-based or functional assay
[7] = target: T1, human CD47 on cells (SHP-77 tumor …); experiment: flow cytometry on human CD47 CHO-K1 cells
[8] = target: T4, cynomolgus CD47 on CHO-K1 stable cell line (cynomolgus, UniProt A0A5F8AK49 19-323 (rhesus entry)); experiment: flow cytometry on cynomolgus CD47 CHO-K1 cells
T4 construct: whole, on cells; also called cynomolgus CD47/CHO-K1

[9] = target: T1, human CD47 on cells (SHP-77 tumor …); experiment: flow cytometry on human RBCs; plateau not reached, not accurate;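 as to Fitted Maximal MFI: antibody binding measured by flow cytometry as geometric mean fluorescence intensity over a range of antibody concentrations, with EC50 and maximum taken from a sigmoidal dose-response fit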
[10] = target: T2, wild type human CD47 (Acro Biosystems, …); experiment: SPR, IgG captured, CD47 in flow; exp 4
Human CD47-C33G [11] = target: T3, Human CD47-C33G; experiment: SPR, IgG captured, CD47 in flow; exp 4
[12] = target: T4, cynomolgus CD47 on CHO-K1 stable cell …; experiment: flow cytometry on cynomolgus CD47 CHO-K1 cells; plateau not reached, not accurate
[13] = target: T1, human CD47 on cells (SHP-77 tumor …); experiment: flow cytometry on human CD47 CHO-K1 cells; plateau not reached, not accurate
[14] = target: T2, wild type human CD47 (Acro Biosystems, …); experiment: SPR, IgG captured, CD47 in flow; exp 4; remark: listed apart in the source
Human CD47-C33G [15] = target: T3, Human CD47-C33G; experiment: SPR, IgG captured, CD47 in flow; exp 4; remark: listed apart in the source
[16] = target: T2, wild type human CD47 (Acro Biosystems, …); experiment: SPR, IgG captured, CD47 in flow; exp 2; remark: listed apart in the source
Human CD47-C33G [17] = target: T3, Human CD47-C33G; experiment: SPR, IgG captured, CD47 in flow; exp 2; remark: listed apart in the source
Human CD47-C33G [18] = target: T3, Human CD47-C33G; experiment: SPR, IgG captured, CD47 in flow; exp 2; remark: listed apart in the source
Human CD47-C33G [19] = target: T3, Human CD47-C33G; experiment: SPR, IgG captured, CD47 in flow; exp 2; estimated, out of instrument limit; remark: listed apart in the source

EC50 [1]: 797 nM
Fitted Maximal MFI [1]: 4000 MFI
Kd [2]: 12 nM
koff [2]: 0.0032 s⁻¹
kon [2]: 260000 M⁻¹ s⁻¹
kon (Human CD47-C33G [3]): 190000 M⁻¹ s⁻¹
Kd (Human CD47-C33G [4]): > 530 nM
koff (Human CD47-C33G [4]): > 0.1 s⁻¹
EC50 [5]: 178 nM
Fitted Maximal MFI [5]: 1540 MFI
B1: 108VH5.M11 / 108VL1.M5 (antibody, human IgG4 S228P, kappa, V domains shown)
VH: EVQLVQSGAEVKKPGASVKVSCKASGYTFTHHYIHWVRQAPGQGLEWMGMIDASDSETRYAQKFQGRVTMTRDTSTSTVYMELSSLRSEDTAVYYCARLGRYYFDYWGQGTLVTVSS
VL: EIVLTQSPATLSLSPGERATLSCRASQSVSSYLAWYQQKPGQAPRLLIYGASNRATGIPARFSGSGSGTDFTLTISSLEPEDFAVYYCGESYGHLYTFGGGTKVEIKR
notes: Full-length IgG4 (S228P), kappa; also called VH5.M11 VL1.M5

EC50 [1]: 8.4 nM
Fitted Maximal MFI [1]: 41600 MFI
CCRF-CEM phagocytosis EC50 [6]: 0.37 nM
CCRF-CEM phagocytosis, Phagocytosis (%) [6]: 59.4%
EC50 [7]: 3.6 nM
EC50 [8]: 3.6 nM
EC50 [9]: 10.1 nM
Kd [10]: 6.1 nM
koff [10]: 0.0029 s⁻¹
kon [10]: 480000 M⁻¹ s⁻¹
Kd (Human CD47-C33G [11]): 35 nM
koff (Human CD47-C33G [11]): 0.0068 s⁻¹
kon (Human CD47-C33G [11]): 200000 M⁻¹ s⁻¹
B2: 108VH5.M22 / 108VL1.M5 (antibody, human IgG4 S228P, kappa, V domains shown)
VH: EVQLVQSGAEVKKPGASVKVSCKASGYTFTHHWMHWVRQAPGQGLEWMGMIDASDIETRYAQKFQGRVTMTRDTSTSTVYMELSSLRSEDTAVYYCARLGRYYFDYWGQGTLVTVSS
VL: EIVLTQSPATLSLSPGERATLSCRASQSVSSYLAWYQQKPGQAPRLLIYGASNRATGIPARFSGSGSGTDFTLTISSLEPEDFAVYYCGESYGHLYTFGGGTKVEIKR
notes: Full-length IgG4 (S228P), kappa; also called VH5.M22 VL1.M5

EC50 [1]: 396 nM
Fitted Maximal MFI [1]: 3680 MFI
Kd [2]: 22 nM
koff [2]: 0.0048 s⁻¹
kon [2]: 220000 M⁻¹ s⁻¹
kon (Human CD47-C33G [3]): 160000 M⁻¹ s⁻¹
Kd (Human CD47-C33G [4]): > 630 nM
koff (Human CD47-C33G [4]): > 0.1 s⁻¹
EC50 [5]: 155 nM
Fitted Maximal MFI [5]: 926 MFI
B3: 108VH5.M15 / 108VL1.M5 (antibody, human IgG4 S228P, kappa, V domains shown)
VH: EVQLVQSGAEVKKPGASVKVSCKASGYTFTHHWIHWVRQAPGQGLEWMGMIDASDSSTRYAQKFQGRVTMTRDTSTSTVYMELSSLRSEDTAVYYCARLGRYYFDYWGQGTLVTVSS
VL: EIVLTQSPATLSLSPGERATLSCRASQSVSSYLAWYQQKPGQAPRLLIYGASNRATGIPARFSGSGSGTDFTLTISSLEPEDFAVYYCGESYGHLYTFGGGTKVEIKR
notes: Full-length IgG4 (S228P), kappa; also called VH5.M15 VL1.M5

EC50 [1]: 14.4 nM
Fitted Maximal MFI [1]: 25400 MFI
CCRF-CEM phagocytosis EC50 [6]: 0.43 nM
CCRF-CEM phagocytosis, Phagocytosis (%) [6]: 49.8%
EC50 [12]: 49.9 nM
EC50 [13]: 15.7 nM
Kd [14]: 8.8 nM
koff [14]: 0.0031 s⁻¹
kon [14]: 360000 M⁻¹ s⁻¹
Kd (Human CD47-C33G [15]): 160 nM
koff (Human CD47-C33G [15]): 0.025 s⁻¹
kon (Human CD47-C33G [15]): 150000 M⁻¹ s⁻¹
EC50 [5]: 8.1 nM
Fitted Maximal MFI [5]: 15700 MFI
B4: 108VH10.Mr / 108VL10.Me (antibody, V domains shown)
VH: EVQLVESGGGLVQPGGSLRLSCAASGFTFSHHWIHWVRQAPGKGLEWVAMIDASDSETRLVDSVKGRFTISADTSKNTAYLQMNSLRAEDTAVYYCSRLGRYYFDYWGQGTLVTVSS
VL: DIQMTQSPSSLSASVGDRVTITCRASQSISSYLNWYQQKPGKAPKLLIYGASSRYSGVPSRFSGSRSGTDFTLTISSLQPEDFATYYCGESYGHLYTFGQGTKVEIK
notes: 4D5-framework series; constant regions not restated for this series; also called VH10.Mr VL10.Me

Kd [16]: 38 nM
koff [16]: 0.011 s⁻¹
kon [16]: 290000 M⁻¹ s⁻¹
Kd (Human CD47-C33G [17]): 330 nM
koff (Human CD47-C33G [17]): 0.016 s⁻¹
kon (Human CD47-C33G [17]): 47000 M⁻¹ s⁻¹
fold reduction of mono-valent binding affinity against the straight-graft antibody (Human CD47-C33G [18]): 7.7 fold
B5: 108VH10 / 108VL10.Mb (antibody, V domains shown)
VH: EVQLVESGGGLVQPGGSLRLSCAASGYSFTHHWIHWVRQAPGKGLEWVAMIDPSDSETRLSQKFKDRFTISADTSKNTAYLQMNSLRAEDTAVYYCSRLGRYYFDYWGQGTLVTVSS
VL: DIQMTQSPSSLSASVGDRVTITCRASENVGTYISWYQQKPGKAPKLLIYAASNRYTGVPSRFSGSRSGTDFTLTISSLQPEDFATYYCGESYGHLYTFGQGTKVEIK
notes: 4D5-framework series; constant regions not restated for this series; also called VH10 VL10.Mb

Kd (Human CD47-C33G [19]): > 1600 nM
koff (Human CD47-C33G [19]): > 0.1 s⁻¹
Kd [16]: 21 nM
koff [16]: 0.0054 s⁻¹
kon [16]: 250000 M⁻¹ s⁻¹
kon (Human CD47-C33G [17]): 61000 M⁻¹ s⁻¹
B6: 108VH10.Mc / 108VL10.M1 (antibody, V domains shown)
VH: EVQLVESGGGLVQPGGSLRLSCAASGYSFTHHWISWVRQAPGKGLEWVAMIDPSDSETRLSQKFKDRFTISADTSKNTAYLQMNSLRAEDTAVYYCSRLGRYYFDYWGQGTLVTVSS
VL: DIQMTQSPSSLSASVGDRVTITCRASENVGTYISWYQQKPGKAPKLLIYGASNRYTGVPSRFSGSRSGTDFTLTISSLQPEDFATYYCGESYGHLYTFGQGTKVEIK
notes: 4D5-framework series; constant regions not restated for this series; also called VH10.Mc VL10.M1

Kd [16]: 30 nM
koff [16]: 0.0071 s⁻¹
kon [16]: 230000 M⁻¹ s⁻¹
Kd (Human CD47-C33G [17]): 290 nM
koff (Human CD47-C33G [17]): 0.014 s⁻¹
kon (Human CD47-C33G [17]): 49000 M⁻¹ s⁻¹
fold reduction of mono-valent binding affinity compared to 108VH10 (Human CD47-C33G [18]): 6.7 fold
B7: 108VH10.Mf / 108VL10.M1 (antibody, V domains shown)
VH: EVQLVESGGGLVQPGGSLRLSCAASGYSFTHHWIHWVRQAPGKGLEWVAMIDPSDSETRLVDSVKGRFTISADTSKNTAYLQMNSLRAEDTAVYYCSRLGRYYFDYWGQGTLVTVSS
VL: DIQMTQSPSSLSASVGDRVTITCRASENVGTYISWYQQKPGKAPKLLIYGASNRYTGVPSRFSGSRSGTDFTLTISSLQPEDFATYYCGESYGHLYTFGQGTKVEIK
notes: 4D5-framework series; constant regions not restated for this series; also called VH10.Mf VL10.M1

EC50 [1]: 8 nM
Fitted Maximal MFI [1]: 27400 MFI
CCRF-CEM phagocytosis EC50 (nM); plateau not reached [6]: 2.3 nM
EC50 [12]: 8.4 nM
EC50 [13]: 6.4 nM
Kd [14]: 7.5 nM
koff [14]: 0.0045 s⁻¹
kon [14]: 600000 M⁻¹ s⁻¹
Kd (Human CD47-C33G [15]): 120 nM
koff (Human CD47-C33G [15]): 0.024 s⁻¹
kon (Human CD47-C33G [15]): 190000 M⁻¹ s⁻¹
EC50 [5]: 3.9 nM
Fitted Maximal MFI [5]: 19400 MFI
B8: 108VH10.Mq / 108VL10.Me (antibody, V domains shown)
VH: EVQLVESGGGLVQPGGSLRLSCAASGFTFSHHWIHWVRQAPGKGLEWVAMIDASDSETRLSDSVKGRFTISADTSKNTAYLQMNSLRAEDTAVYYCSRLGRYYFDYWGQGTLVTVSS
VL: DIQMTQSPSSLSASVGDRVTITCRASQSISSYLNWYQQKPGKAPKLLIYGASSRYSGVPSRFSGSRSGTDFTLTISSLQPEDFATYYCGESYGHLYTFGQGTKVEIK
notes: 4D5-framework series; constant regions not restated for this series; also called VH10.Mq VL10.Me
